In patent US20230263916A1 (NANOMAB TECHNOLOGY, published 2023):

What was measured:
[1] = target: T1, human Her2 (ECD)-Fc protein (human, UniProt P04626 23-652); assay: PE-ELISA, crude extract on antigen-coated plate
T1 construct: extracellular domain; Made in HEK293F cells; also called hHer2 (ECD)-Fc antigen; Her2 (ECD)-Fc antigen; not shown: TEV restriction site at the C-terminal of hHer2 (ECD); IgG1 Fc of the pFUSE-IgG1 vector
Experimental: (§1) (1) 10 μg Her2 (ECD)-Fc antigen (10 μg Fc in NaHCO₃ as control) dissolved in 100 mM NaHCO₃ (pH 8.2) was coupled to a NUNC plate then incubated at 4° C. overnight.
(§2) (5) The unbound antibody was washed off with PBST.
(§3) (6) When the OD value of the sample was over 3 times of the OD value of the control sample (Ratio+/−>3), the tested sample was determined to be a positive clone. […] Then all the positive clones were transferred to LA medium for plasmid extraction and sequencing.

[2] = target: T1, human Her2 (ECD)-Fc protein; assay: PE-ELISA, A405 of antigen well over control well
Experimental: as §1, §2, §3

Binder	A405+ [1]	Ratio(+/-) [2]
Nanobody No. 3 (VHH, not shown: tags (HA, His) implied by anti-HA detection and nickel column) VHH: QVQLQESGGGSVQAGGSLRLSCTASGFTFDDSDVRWYRQAPGRECKLVSSISSDRSAYYEDSVKGRFTISQDNAKNTVYLQMNSLKPEDTAVYYCAAHPLHYELGTCAALDYWGRGTQVTVSS	1.31 A405	13
Nanobody No. 12 (VHH, also called 12; not shown: tags (HA, His) implied by anti-HA detection and nickel column) VHH: QVQLQESGGGSVQAGETLRLSCTASGFTFDDSDMGWYRQAPGNECELVSTISSDGSTYYADSVKGRFTISQDNAKNTVYLQMNSLKPEDTAVYYCAADGHKYELGTCAALDYWGRGTQVTVSS	2.18 A405	25.6
Nanobody No. 1 (VHH, not shown: tags (HA, His) implied by anti-HA detection and nickel column) VHH: QVQLQESGGGSVQAGETLRLSCTASGFTFDDSDMGWYRQAPGNECELVSTISSDGSTYYADSVKGRFTISQDNAKNTVYLQMNSLKPEDTAVYYCAAHPLHYELGTCAALDYWGRGTQVTVSS	1.72 A405	22.3
Nanobody No. 8 (VHH, not shown: tags (HA, His) implied by anti-HA detection and nickel column) VHH: QVQLQESGGGSVQAGETLRLSCTASGFTFDESVMGWYRQAPGNECELVSTISSDGSTYYSNSVKGRFTISQDNAKNTVYLQMNSLKPEDTAVYYCAADDHTYELGTCEALNYWGRGTQVTVSS	2.56 A405	28
Nanobody No. 11 (VHH, also called 11; not shown: tags (HA, His) implied by anti-HA detection and nickel column) VHH: QVQLQESGGGSVQAGETLRLSCTASGFTFDDSDMGWYRQAPGNECELVSHISSGGSTYYADSVKGRFTISQDNAKNTVYLQMNSLKPEDTAVYYCAADGSNYELGTCAALDYWGRGTQVTVSS	1.88 A405	25.5
Nanobody No. 15 (VHH, also called 15; not shown: tags (HA, His) implied by anti-HA detection and nickel column) VHH: QVQLQESGGGSVQAGGSLRLSCTASRFTFDDSDMGWYRQAPGNECELVSTISSDGATYYANSVKGRFTISQDNAANTVYLQMNSLKPEDTAVYYCAALEWEYELGTCEALDYWGQGTQVTVSS	2.27 A405	26.1
Nanobody No. 30 (VHH, also called 30; not shown: tags (HA, His) implied by anti-HA detection and nickel column) VHH: QVQLQESGGGSVQAGETLRLSCTASGFTFDDSDMGWYRQAPGNECELVSTISSDGRTYYADSVKGRFAISQNNAKNTVYLQMNSLKPEDTAVYYCAADQHRYGLGTCEALDYWGRGTQVTVSS	2.31 A405	23.9
Nanobody No. 28 (VHH, also called 28; not shown: tags (HA, His) implied by anti-HA detection and nickel column) VHH: QVQLQESGGGLVQPGGSLRLSCAASGFTFGDSGMGWYRQAPGNECELVSSVSSDGSTYYADSVKGRFTISQDNAKNTVYLRMNSLKPEDTAVYYCAADDHKYELGTCEALDYWGRGTQVTVSS	1.86 A405	23.3
Nanobody No. 14 (VHH, also called 14; not shown: tags (HA, His) implied by anti-HA detection and nickel column) VHH: QVQLQESGGGSVQAGETLRLSCTASGFTFDDSDMGWYRQAPGNECELVSRISSDGSTYYADSVKGRFTISQDNAKNTVYLQMNSLKPEDTAVYYCAALEWEYELGTCEALDYWGQGTQVTVSS	1.96 A405	24.4
Nanobody No. 20 (VHH, also called 20; not shown: tags (HA, His) implied by anti-HA detection and nickel column) VHH: QVQLQESGGGSVQAGGSLRLSCTASGFTFDDSVMGWFRKAPGNECELVSTISSDGSTYYADSVKGRFTISQDNAKNTVYLQMNNLKPEDTAVYYCAAINSGYELGTCESLDYWGRGTQVTVSS	1.47 A405	10.2
Nanobody No. 2 (VHH, not shown: tags (HA, His) implied by anti-HA detection and nickel column) VHH: QVQLQESGGGSVQAGETLRLSCTASGFTFDDSDMGWYRQAPGNECELVSTISSDGSTYYADSVKGRFTISQDNAKNAVYLQMNSLKPEDTAVYYCAAHPLHYELGTCAALDYWGRGTQVTVSS	1.53 A405	19.3
Nanobody No. 16 (VHH, also called 16; not shown: tags (HA, His) implied by anti-HA detection and nickel column) VHH: QVQLQESGGGSVQAGGSLRLSCTASGFTFDDSDMVWYRQAPGNECELVSRISSDGSTYYADSVKGRFTISQDNAKNTVYLQMNSLKPEDTAVYYCAALEWEYELGTCEALDYWGQGTQVTVSS	1.79 A405	23.5
Nanobody No. 31 (VHH, also called 31; not shown: tags (HA, His) implied by anti-HA detection and nickel column) VHH: QVQLQESGGGSVQAGETLRLSCTASGFTFNDSNMGWYRQAPGHECELVSTISSDGSTYYADSVKGRFTISQNNARNTVYLQMNSLKPEDTAVYYCAGDWGYELGICTSLDYWGQGTQVTVSS	1.65 A405	21.4
Nanobody No. 18 (VHH, also called 18; not shown: tags (HA, His) implied by anti-HA detection and nickel column) VHH: QVQLQESGGGSVQAGQTLRLSCTASGFTFDDSDMAWYRQAPGNECELVSKMRSDGSTYYADSVKGRFTISQDNAKNTVYLQMNSLKPEDTAVYYCAEDLPYGLGTCTSLDYWGRGTQVTVSS	1.59 A405	19.2
Nanobody No. 19 (VHH, also called 19; not shown: tags (HA, His) implied by anti-HA detection and nickel column) VHH: QVQLQESGGGSVQAGGSLRLSCTASGFTFDDSDSDMGWYRQAPGNECELVSSISSDGSTYYADSVKGRFTISQDNAKNTVYLQMNSLKPEDTAVYYCAAINSGYELGTCESLDYWGRGTQVTVSS	1.77 A405	19.6
Nanobody No. 21 (VHH, also called 21; not shown: tags (HA, His) implied by anti-HA detection and nickel column) VHH: QVQLQESGGGLVQPRGSLRLSCTASGFTFDDSDSDMGWYRQAPGNECELVSSISSDGSTYYADSVKGRFTISQDNAKNTVYLQMNSLKPEDTAVYYCAAINSGYELGTCESLDYWGRGTQVTVSS	2.09 A405	20.3
Nanobody No. 25 (VHH, also called 25; not shown: tags (HA, His) implied by anti-HA detection and nickel column) VHH: QVQLQESGGGSVQAGETLRLSCTASGFTFDDSDSDMGWYRQAPGNECELVSSISSDGSTYYADSVKGRFTISQDNAKNTVYLQMNSPKPEDTAVYYCAAINSGYELGTCESLDYWGRGTQVTVSS	1.97 A405	22.4
Nanobody No. 24 (VHH, also called 24; not shown: tags (HA, His) implied by anti-HA detection and nickel column) VHH: QVQLQESGGGSVQAGETLRLSCTASGFTFDDSDSDMGWYRQAPGNECELVSSISSDGSTYYADSVKGRFTISQDNAKNTVYLQMNSLKPEDTAVYYCAAINSGYELGTCESLDYWGRGTQVTVSS	2.68 A405	23.7
Nanobody No. 33 (VHH, also called 33; not shown: tags (HA, His) implied by anti-HA detection and nickel column) VHH: QVQLQESGGGSVQAGGSLRLSCTASGFTFDDVDMGWYRQAPGNECELVSTISSDGSTYYADSVKGRFTISQDNAKNTVYLQMNSLKPEDTAMYYCAAARYSDYEGMCGYWSQGTQVTVSS	2.05 A405	21.3
Nanobody No. 34 (VHH, also called 34; not shown: tags (HA, His) implied by anti-HA detection and nickel column) VHH: QVQLQESGGGSVQAGGSLRLSCTVSGFTFDDVDMGWYRQAPGNECELVSTISSDGSTYYADSVKGRFTISQDNAKNTVYLQMNSLKPEDTAMYYCAAARYSDYEGMCGYWSQGTQVTVSS	2.26 A405	20
Nanobody No. 32 (VHH, also called 32; not shown: tags (HA, His) implied by anti-HA detection and nickel column) VHH: QVQLQESGGGSVQAGGSLRLSCTASGFTFDDVDMGWYRQASGNECELVSTISSDGSTYYADSVKGRFTISQDNAKNTVYLQMNSLKPEDTAMYYCAAARYSDYEGMCGYWSQGTQVTVSS	2.36 A405	25.3
Nanobody No. 4 (VHH, not shown: tags (HA, His) implied by anti-HA detection and nickel column) VHH: QVQLQESGGGLVQPGGSLRLSCTASRFTFDDSDMAWYRQAPGNECELVSIISSDGSTYYADSVKGRFTISLDNTKSTVYLQMNSLKPEDTAVYYCAAHPLHYELGTCAALDYWGRGTQVTVSS	1.97 A405	21.2
Nanobody No. 5 (VHH, not shown: tags (HA, His) implied by anti-HA detection and nickel column) VHH: QVQLQESGGGSVQAGGSLRLSCTVSGFSFDDSDMGWYRRAPGNECELVSGISRDGSTYYADSVKGRFTISQDNAKNWVYLQMNSLKPEDTAVYYCAAATYSDYVCDYWTQGTQVTVSS	1.1 A405	12.7
Nanobody No. 6 (VHH, not shown: tags (HA, His) implied by anti-HA detection and nickel column) VHH: QVQLQESGGGSVQAGETLRLSCTASGFTFDDSDMGWYRQAPGNECELVSHISSDGSTYYADSVKGRFTISQDNAKNTVFLQMNSLKPEDTAVYYCAADKDARGYELGTCESLDYWGRGTQVTVSS	2.14 A405	23.4
Nanobody No. 7 (VHH, not shown: tags (HA, His) implied by anti-HA detection and nickel column) VHH: QVQLQESGGGSVQAGETLRLSCTASGFTFDDSDMGWYRQAPGNECELVSTISSDGSTYYADSVKGRFTISQDNAKNTVYLQMNSLKPEDTAVYYCAADKDARGYELGTCESLDYWGRGTQVTVSS	2.24 A405	27.4
Nanobody No. 27 (VHH, also called 27; not shown: tags (HA, His) implied by anti-HA detection and nickel column) VHH: QVQLQESGGGSVQAGETLRLSCTASGFTFDDSDMGWYRQAPGNECELVSTISSDGSTYYADSVKGRFTISQDNAKNTVYLQMNSLKPEDTAVYYCAADHGGGYELGTCAALDYWGRGTQVTVSS	1.66 A405	20.5
Nanobody No. 29 (VHH, also called 29; not shown: tags (HA, His) implied by anti-HA detection and nickel column) VHH: QVQLQESGGGSVQAGGSLRLSCTASGFTFDDLDMRWYRQAPGNECELVSIINSDGRTYYADSVKGRFAISQNNAKNTVYLQMNSLKPEDTAVYYCAADQHRYGLGTCEALDYWGRGTQVTVSS	1.48 A405	18.8
